Source: US20220243196, “[…] METHOD OF APTAMER AND IMMUNOASSAY USING THE APTAMER” (SB BIOSCIENCE CO., LTD., published 2022)

What was measured:
SARS-CoV-2 NP = SARS-CoV-2 NP (SARS-CoV-2, UniProt P0DTC9 P0DTC9:1-419); assay: ELONA
HIV-1 p24 = HIV-1 p24 (Human immunodeficiency virus 1, UniProt P04591 P04591:133-363); assay: ELONA; antibody-antigen-aptamer sandwich with RPA readout
Ebola NP = Ebola NP (Ebola virus, UniProt P18272 P18272:1-739); assay: ELONA

B1: SARS-CoV-2 NP aptamer (ssDNA)
DNA: ATCCAGAGTGACGCAGCAAACCCAAGCAAACTACCTCTATACCCTTCGACCTTCATCATGGACACGGTGGCTTAGT
binding result (SARS-CoV-2 NP): binds

B2: HIV-1 p24 aptamer (ssDNA)
DNA: AGATACTGCCATTCATTGCATCGAGCACGCGACTGATGAGGATGGTCTAGTAGCTGGGGTCGAGTACTAAGCTATGTGTCGA
binding result (HIV-1 p24): binds

B3: Ebola NP aptamer (ssDNA)
DNA: GATGTGAGTGACGTGGATCGAGCGGATGTGAAGGCTGAAAGTGGCTTTGGGCGGTCGTAAGTGTCACAGAGCATGCAACAAGACC
binding result (Ebola NP): binds
